From publication doi:10.1101/2024.08.16.608213 come the findings set out here.

One data set has as its target VIM-1 beta-lactamase (UniProt A0A0F7KYQ8 21-266). The data set is described as follows: EMSA.
A further data set deals with IMP-1 beta-lactamase (UniProt P52699 19-246). The data set is described as follows: EMSA.
The target in another data set is NDM-1 beta-lactamase (UniProt C7C422 29-270). The data set is described as follows: EMSA.
Data set [1] has as its target T1, SPM-1 beta-lactamase (Pseudomonas aeruginosa, UniProt Q8G9Q0 29-276).
T1 sequence: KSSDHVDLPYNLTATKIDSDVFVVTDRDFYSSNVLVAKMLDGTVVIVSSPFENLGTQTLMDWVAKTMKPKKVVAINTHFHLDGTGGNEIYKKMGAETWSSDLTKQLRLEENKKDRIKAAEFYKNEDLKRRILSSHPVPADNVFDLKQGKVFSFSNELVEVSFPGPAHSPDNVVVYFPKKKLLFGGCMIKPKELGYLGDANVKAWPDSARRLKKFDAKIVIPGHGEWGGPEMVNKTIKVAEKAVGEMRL
The data set is described as follows: EMSA.

Data set [2] addresses T1, SPM-1 beta-lactamase. The data set is described as follows: NMR.

Sequence of IMP-1 beta-lactamase (P52699 19-246): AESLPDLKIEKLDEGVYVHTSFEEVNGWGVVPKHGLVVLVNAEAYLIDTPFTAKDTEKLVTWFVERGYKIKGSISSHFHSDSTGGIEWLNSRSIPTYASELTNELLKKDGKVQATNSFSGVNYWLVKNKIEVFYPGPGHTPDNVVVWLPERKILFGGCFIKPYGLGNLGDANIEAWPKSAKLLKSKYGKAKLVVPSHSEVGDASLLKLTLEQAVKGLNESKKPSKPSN
Sequence of NDM-1 beta-lactamase (C7C422 29-270): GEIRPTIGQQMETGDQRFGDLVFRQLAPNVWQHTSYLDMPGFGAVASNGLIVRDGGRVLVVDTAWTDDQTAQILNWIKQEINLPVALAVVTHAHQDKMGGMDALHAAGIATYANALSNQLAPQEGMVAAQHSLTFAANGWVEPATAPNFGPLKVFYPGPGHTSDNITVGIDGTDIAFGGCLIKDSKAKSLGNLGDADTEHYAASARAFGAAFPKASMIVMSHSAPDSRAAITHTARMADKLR

Consider GGGAGAUGCUAGAGAUUCGGUGGGACACCCGUCUCCC (XNA, 2'-fluoro at all pyrimidines (C, U)) [S25 2'-FY], for which the binding result was “no binding” with VIM-1 beta-lactamase, “no binding” with IMP-1 beta-lactamase, “no binding” with NDM-1 beta-lactamase and “binds” with SPM-1 beta-lactamase [1].
As for GGGAGAUGCUAGAGAUUCGGUGGGACACCCUUCUCCC (structured_RNA) [S30 RNA (S25 G31U)], the binding result with SPM-1 beta-lactamase [2] is given as “binds”.
In the case of GGGAGAUGCUAGAGAUUCGGUGGGACACCCGUCUCCC (structured_RNA) [S25 RNA], the binding result in the data set with SPM-1 beta-lactamase [2] is “binds”.
